Results taken from paper PMC8752127 (Structure(London, England:1993), 2022).

Target: CEP164^1−109 (N-terminal domain of human CEP164), untagged (human, UniProt Q9UPV0)
Assay: crystal structure; nanobody and CEP164 1-109 (or the TTBK2 1074-1087-CEP164 1-109 fusion protein) mixed equimolar; vapour diffusion at 19°C
Conditions: both partners purified

B1: camelid nanobody 36Z (VHH)
VHH: QVQLQESGGGLVQAGGSLNLSCVASGSSHFNSMGWYRQAPGKQRDLVADISNDGVTNYADSVKDRFTISTNNAKNAVYLQMNNLKPEDTAVYYCNAVAVAGRAFSYWGQGTQVTVSS
binding result: binds
